Results reported in IntAct's records for PubMed 17292842.

B1: Rab guanine nucleotide exchange factor SEC2 (Saccharomyces cerevisiae), P17065 (parent)
chain: MDASEEAKRVSIQVTSLSTQLIESVDKQSHLEEQLNKSLKTIASQKAAIENYNQLKEDYNTLKRELSDRDDEVKRLREDIAKENELRTKAEEEADKLNKEVEDLTASLFDEANNMVADARKEKYAIEILNKRLTEQLREKDTLLDTLTLQLKNLKKVMHSLDNESTVTNNSNRYSTILSDSATSSSTSLNKVPTSYSLASQDIYSGIVYSPSISSIRYDISLYNEFLKFVAALPRCENIKATSTESKLIRRLVNDEIQPILKIDNASGIGWLVKKTLLSLIIDGLVVVEPLSGVNATYQIGYNSSSPAKQATSNMPKMFKFPLDSPPVAVHAACSFCGESRDDIIEHARMYILKTLHKTDDGKEQVTNTYPLCHWCLLKLRQTCEIFAFLRSLKVGAWHLEKLTTQNITKEDLEKFSEVTKHTKRDGRVSSQDKKTKRLSFMAGLGINSSTKNKPKMEIFSSETNAKPGQPTTNIQRAWLQLCKLRCILHWTHIGIWAVDDSISSKIGPLVEDDSDEDQNDAISVRLQDKALWKQDAKRPFSSSSAEESQKSDAFDFESGDMENEITGESSSDESSSDGSSTDNSTADSSSEDESSLADSTTSSADSSSPESIDNGEGDDTVTKDDKSSIKSANNNEENSDCGDKKGRSIIKKKAPQRKIQKKKLLQDLDDLEEQFREESAIDQTEFENAESNVKQNISSKRASSGDENSKKDNNEKTLKTNLTIGDKTQEQIGENSPSSGLHASSSNDDNFDDAQEQQ
partner: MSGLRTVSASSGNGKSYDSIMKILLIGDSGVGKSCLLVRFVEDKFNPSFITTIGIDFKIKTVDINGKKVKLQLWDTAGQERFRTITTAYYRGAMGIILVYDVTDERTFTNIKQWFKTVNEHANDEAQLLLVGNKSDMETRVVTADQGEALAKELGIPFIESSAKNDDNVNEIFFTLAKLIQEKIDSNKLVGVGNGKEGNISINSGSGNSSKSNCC

Variants of: B1
Conditions: with sec4_yeast SEC4, P07560

| Variant | effect of a mutation on the interaction |
| --- | --- |
| E100A | disrupting interaction |
| L104A | disrupting interaction |
| F109A | disrupting interaction |
